Test results: patent US20200024330A1

Experiments:
Experiment in all cases: cell-based or functional assay
[1] = molecular target: HIV-1 Env of isolate 92UG024 (HIV-1)
[2] = molecular target: HIV-1 Env of isolate 93TH305 (pseudovirus) (HIV-1 isolate 93TH305, subtype B)
[3] = molecular target: HIV-1 Env of isolate MGRM-A-013 (clade A), on pseudovirus (HIV-1)
[4] = molecular target: HIV-1 Env of isolate MGRM-AG-012 (CRF_AG), on pseudovirus (HIV-1)
[5] = molecular target: HIV-1 Env of isolate MGRM-AG-013 (CRF_AG), on pseudovirus (HIV-1)
[6] = molecular target: HIV-1 Env of isolate MGRM-C-013 (HIV-1)
[7] = molecular target: HIV-1 Env of isolate MGRM-D-013 (HIV-1)
[8] = molecular target: HIV-1 Env of isolate MGRM-F1-016 (subtype F), on pseudovirus (HIV-1)
[9] = molecular target: HIV-1 Env of isolate MGRM-F1-022 (subtype F), on pseudovirus (HIV-1)
[10] = molecular target: HIV-1 Env of isolate MGRM-G-024 (HIV-1)
[11] = molecular target: HIV-1 JR-CSF Env D185A (HIV-1 (isolate JR-CSF)) (UniProt P20871)
[12] = molecular target: HIV-1 JR-CSF Env V127A (HIV-1 (isolate JR-CSF)) (UniProt P20871)
[13] = molecular target: HIV-1 93IN905 envelope glycoprotein (Env) on pseudovirus (HIV-1)
[14] = molecular target: HIV-1 APV_6 Env (pseudovirus) (HIV-1)
[15] = molecular target: HIV-1 Env of isolate 98CN009 (subtype CRF07_BC) (HIV-1)
[16] = molecular target: HIV-1 Env of isolate MG RM-D-008 (subtype D) (HIV-1)
[17] = molecular target: HIV-1 Env of isolate MG RM-D-012 (subtype D) (HIV-1)
[18] = molecular target: HIV-1 Env of isolate MG RM-D-016 (subtype D) (HIV-1)
[19] = molecular target: HIV-1 Env of isolate MG RM-D-020 (subtype D) (HIV-1)
[20] = molecular target: HIV-1 Env of isolate MGRM-C-001 (pseudovirus) (HIV-1 isolate MGRM-C-001, subtype C)
[21] = molecular target: HIV-1 Env of isolate MGRM-C-006 (pseudovirus) (HIV-1 isolate MGRM-C-006, subtype C)
[22] = molecular target: HIV-1 Env of isolate MGRM-C-026 (pseudovirus) (HIV-1 isolate MGRM-C-026, subtype C)
[23] = molecular target: HIV-1 Env of isolate MGRM-F1-004 (subtype F) (HIV-1)
[24] = molecular target: HIV-1 MGRM-A-010 envelope glycoprotein (Env) on pseudovirus (HIV-1)
[25] = molecular target: HIV-1 MGRM-Chronic-B-003 Env (pseudovirus) (HIV-1)
[26] = molecular target: HIV-1 QH0692.42 Env (pseudovirus) (HIV-1)
[27] = molecular target: HIV-1 SF162 Env (pseudovirus) (HIV-1) (UniProt P19550)
[28] = molecular target: HIV-1 THR0.18 Env (pseudovirus) (HIV-1)
[29] = molecular target: HIV-1 VLGCB3 Env (pseudovirus) (HIV-1)

5345_I01 (PGT-137) (antibody), sequence (VH): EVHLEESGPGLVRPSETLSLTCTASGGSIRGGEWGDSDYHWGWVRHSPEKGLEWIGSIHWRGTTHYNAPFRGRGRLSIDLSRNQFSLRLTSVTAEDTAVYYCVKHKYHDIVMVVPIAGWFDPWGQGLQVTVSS
5345_I01 (PGT-137) (antibody), sequence (VL): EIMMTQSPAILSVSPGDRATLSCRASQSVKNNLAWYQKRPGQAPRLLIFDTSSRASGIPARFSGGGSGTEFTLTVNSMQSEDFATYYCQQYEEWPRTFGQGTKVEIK

Substance | IC50 [1] [mg/L] | IC50 (µg/mL) neutralization [2] [µg/mL] | IC50, single-round pseudovirus neutralization [3] [mg/L] | IC50, single-round pseudovirus neutralization [4] [mg/L] | IC50, single-round pseudovirus neutralization [5] [mg/L] | IC50 [6] [mg/L] | IC50 [7] [mg/L] | IC50, pseudovirus neutralization [8] [mg/L] | IC50, pseudovirus neutralization [9] [mg/L] | IC50, pseudovirus neutralization [10] [mg/L] | Fold IC50 increase relative to wild-type [11] [fold] | Fold IC50 increase relative to wild-type [12] [fold] | IC50 (ug/ml), neutralizing activity [13] [µg/mL] | IC50, pseudovirus neutralization [14] [mg/L] | IC50 (µg/mL), pseudovirus neutralization [15] [µg/mL] | IC50 (µg/mL), pseudovirus neutralization [16] [µg/mL] | IC50 (µg/mL), pseudovirus neutralization [17] [µg/mL] | IC50 (µg/mL), pseudovirus neutralization [18] [µg/mL] | IC50 (µg/mL), pseudovirus neutralization [19] [µg/mL] | IC50 (µg/mL) neutralization [20] [µg/mL] | further results
5343_B08 (PGT-135) (antibody) | 0.01 | > 50 | > 50 | 41.9 | > 50 | > 50 | > 50 | > 50 | 0.964 | 0.062 | 1.3 | 1.4 | – | – | – | – | – | – | – | – | –
5141_B17 (PGT-126) (antibody) | – | – | – | – | – | – | – | – | – | > 50 | 1 | 1.3 | 0.0194 | 0.007 | 0.019 | 43.1 | > 50 | > 50 | 0.023 | > 50 | IC50 (µg/mL) neutralization [21]: 0.014 µg/mL; IC50 (µg/mL) neutralization [22]: 0.007 µg/mL; IC50 (µg/mL), pseudovirus neutralization [23]: 0.063 µg/mL; IC50 (ug/ml), neutralizing activity [24]: 0.0033 µg/mL; IC50, pseudovirus neutralization [25]: 0.041 mg/L; IC50, pseudovirus neutralization [26]: 0.048 mg/L; IC50, pseudovirus neutralization [27]: 0.003 mg/L; IC50, pseudovirus neutralization [28]: > 50 mg/L; IC50, pseudovirus neutralization [29]: 0.007 mg/L
5123_A06 (PGT-125) (antibody) | – | – | – | – | – | – | – | – | – | > 50 | 0.6 | 0.9 | 0.0137 | 0.021 | 0.03 | > 50 | > 50 | 0.12 | > 50 | > 50 | neutralization IC50 [13]: 0.0137 mg/L; neutralization IC80 [13]: 0.0494 mg/L; neutralization IC90 [13]: 0.106 mg/L; neutralization IC95 [13]: 0.216 mg/L; IC50 (µg/mL) neutralization [21]: 0.015 µg/mL; IC50 (µg/mL) neutralization [22]: 0.005 µg/mL; IC50 (µg/mL), pseudovirus neutralization [23]: > 50 µg/mL; IC50 (ug/ml), neutralizing activity [24]: 0.0025 µg/mL; neutralization IC50 [24]: 0.0055 mg/L; neutralization IC80 [24]: 0.024 mg/L; neutralization IC90 [24]: 0.0575 mg/L; neutralization IC95 [24]: 0.131 mg/L; IC50, pseudovirus neutralization [25]: 0.157 mg/L; IC50, pseudovirus neutralization [26]: 0.048 mg/L; IC50, pseudovirus neutralization [27]: 0.004 mg/L; IC50, pseudovirus neutralization [28]: > 50 mg/L; IC50, pseudovirus neutralization [29]: 0.015 mg/L
5345_I01 (PGT-137) (antibody) | 0.106 | > 50 | 49.2 | > 50 | > 50 | > 50 | > 50 | > 50 | 6.23 | 0.051 | – | – | – | – | – | – | – | – | – | – | –
5114_A19 (PGT-128) (antibody) | > 50 | 0.006 | 0.008 | > 50 | 0.004 | > 50 | 8.85 | 1.21 | 4.54 | 0.095 | 1.5 | 1.1 | – | – | – | – | – | – | – | – | –
4858_P08 (PGT-123) (antibody) | – | – | – | – | – | – | – | – | – | 0.032 | 1.9 | 1.2 | 0.0071 | 0.023 | 0.007 | > 50 | > 50 | > 50 | 0.018 | 42.4 | IC50, pseudovirus neutralization [13]: 0.0071 mg/L; IC80, pseudovirus neutralization [13]: 0.0281 mg/L; IC90 (pseudovirus neutralization) [13]: 0.0625 mg/L; IC95, pseudovirus neutralization [13]: 0.131 mg/L; IC50 (µg/mL) neutralization [21]: 0.021 µg/mL; IC50 (µg/mL) neutralization [22]: 0.001 µg/mL; IC50 (µg/mL), pseudovirus neutralization [23]: 1.78 µg/mL; IC50 (ug/ml), neutralizing activity [24]: 0.492 µg/mL; IC50, pseudovirus neutralization [24]: 0.492 mg/L; IC80, pseudovirus neutralization [24]: 2.79 mg/L; IC90 (pseudovirus neutralization) [24]: 6.44 mg/L; IC95, pseudovirus neutralization [24]: > 10 mg/L; IC50, pseudovirus neutralization [25]: 0.008 mg/L; IC50, pseudovirus neutralization [26]: 0.158 mg/L; IC50, pseudovirus neutralization [27]: 0.005 mg/L; IC50, pseudovirus neutralization [28]: > 50 mg/L; IC50, pseudovirus neutralization [29]: 0.004 mg/L
